Molecular target: ACLYana-3-pTza peptide (AGAG-3-pTza-AGAG)
Assay: BLI binding kinetics of 3-pHis Fabs with cognate pTza peptide
Method: Biolayer interferometry (BLI) studies were performed to determine the relative affinity of pHis Fabs to in situ phosphorylated His peptides versus the phosphomimetic substrates. The N-terminally biotinylated peptides were immobilized on streptavidin biosensors and the rate of association (ka) and dissociation (kd) were determined by varying the pHis Fab concentration. Equilibrium dissociation constants (KD) were determined by fitting the experimental data to a 1:1 Langmuir binding model. ACLYana-1-pTza and ACLYana-3-pTza peptides were used to determine affinity to 1-pHis and 3-pHis Fabs, respectively (Fig. 3 A–E and Table 1). […] The two isomers were separated from each other by passing the reaction through affinity columns containing 1-pHis mAbs using SC1-1 or SC50-3 IgGs or 3-pHis mAbs using SC39-4, SC44-8, and SC56-2 IgGs. The eluates thus contained either predominantly 1-pHis or 3-pHis peptides. These peptides were used to determine the affinity to their respective isomer class of pHis Fabs (Fig. 3 F–J, Table 1, and SI Appendix, Fig. S5). […] This experimental observation is well supported by the higher number of hydrogen bonds that support the SC44-8:3-pTza interaction compared to other pHis Fabs (SI Appendix, Table S5). […] There are at least three reasons for the lower affinity of the mAbs for pHis peptides compared to pTza peptides: The continuous hydrolysis of phosphate from the pHis peptides during the course of the experiment (SI Appendix, Fig. S6), a reduction in the number of hydrogen bond interactions due to one less nitrogen in the imidazole ring compared to triazolyl ring (Fig. 4 and SI Appendix, Fig. S8), and inherently different electronic properties of the imidazole and triazolyl rings in His and Tza, respectively ([20]).
Fig. 3. Binding kinetics of pHis Fabs with cognate pTza and pHis peptides. BLI studies of immobilized peptides (ACLYana-1/3-pTza and phosphorylated ACLYana) with varying concentrations of the pHis Fabs were carried out in triplicate on an Octet Red96e instrument (FortéBio). SC1-1 (A) and SC50-3 (B) pHis Fab interaction with their ACLYana-1-pTza peptides. SC39-4 (C), SC44-8 (D), and SC56-2 (E) pHis Fabs interactions with ACLYana-3-pTza peptides. SC1-1 (F), SC50-3 (G), SC39-4 (H), SC44-8 (I), and SC56-2 (J) pHis Fabs interactions with their affinity-purified ACLYana-pHis peptides are represented, Right. The experimental data are represented in the black dashed lines and the nonlinear least-squares fitting was represented in the red continuous lines. The χ^2 for the goodness of fit is under 1.0 for the all the plots.
The binding kinetics of pHis Fabs with the peptides (pTza and pHis) were evaluated with an Octet RED96e (FortéBio). Streptavidin-coated biosensors (FortéBio) were presoaked in buffer containing 50 mM Hepes pH 8.0, 150 mM NaCl, 0.05% Tween-20, and 0.2% BSA for 15 min. The biotinylated pTza peptides or pHis peptides (20 nM) with and without phosphoramidate treatment were coated onto these streptavidin biosensors and analyzed for their binding to varying concentrations of the pHis Fabs with an association time of 120 s and dissociation time of 200 s. The entire set of experiments was repeated three times. The data were analyzed using the Octet software (FortéBio) and the rates of association and dissociation were obtained by global fitting data to the 1:1 Langmuir interaction model.

[1] = BLI, immobilized biotinylated ACLYana-3-pTza, 1:1 Langmuir global fit, triplicate

Kd (BLI Octet RED96e, N-terminally biotinylated peptide (20 nM) on streptavidin biosensors, varying Fab concentration, 50 mM Hepes pH 8.0, 150 mM NaCl, 0.05% Tween-20, 0.2% BSA, association 120 s, dissociation 200 s, global fit 1:1 Langmuir, triplicate): 0.235 nM
dissociation rate, times slower than the other pHis Fabs (BLI, 3-pTza peptide): 70 times
ka [1]: 156000 ± 457 M⁻¹ s⁻¹
kd [1]: 3.66e-05 ± 7.5e-07 s⁻¹
B1: SC44-8: Fab of rabbit 3-pHis-specific monoclonal antibody with proclivity for GpHAGA motif (antibody, V domains shown)
VH: QSVKESGRGLVQPGGSLTLTCTASGFSIDSYGFSWVRQAPGKGLEHIGYLTAGGRAFYASWAKSRSTITRNTNENTVTLKMTSLTAADTATYFCAKLGSGNPVAIWGPGTLVTVSS
VL: QVLTQTPSFTSAAVGGTVTINCQSSQSVWRNKNLAWYQQKPGQPPKRLIYAIATLDSGVPSRFSGSGSGTQFTLTISDVQCDDAATYYCVGHYGSENDAYYAFGGGTEVVVK
